The RNAGym collection of RNA variant scans (doi:10.1073/pnas.2313332121)

B1: TPR t1 (parent)
chain: GACCAAUCUGCCCUCAGAGCUCGAGAACAUCUUCGGAUGCAGAGGAGGCAGGCUUCGGUGGCGCGAUAGCGCCAACGUCCUCAACCUCCAAUGCAUCCCACCACAUGAUGAUGCCUGAAGAGCCUUGGUUUUUUG

Variants of: B1
Experiment: polymerase ribozyme fitness, log enrichment relative to wild type (log ratio); higher = more active; in vitro selection for triplet polymerase activity
Summary of the method: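 Frozen incubation at −7 °C formed the core of a single, triplicate in vitro selection round applied to PCR-built, transcribed mutant libraries of each subunit of a heterodimeric triplet polymerase ribozyme. Extended constructs were gel-excised, captured with streptavidin beads and amplified by RT-PCR, and input and output libraries were Illumina-sequenced with a filter of ≥10 input reads and ≥1 read per output. Fitness is the logarithm of genotype enrichment relative to wild-type enrichment, with inverse-variance-weighted replicate averaging, and the logarithm is base 2.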

Variant | polymerase ribozyme fitness (log ratio)
C11U G120C | 1.11
G17U G63C | -3.04
A16C G120A | -2.28
C13A G122A | -2.07
C56U A95C | -1.26
A5U G57A G63U U78C A95C C115A | -3.19
G61U C97G G113U | -5.53
G93U G128C | -4.57
C8U C12A G35U G45C C53G C104U | -6.79
G61U G117A | -0.499
G60U U125G | -0.584
U9G G45A | 0.293
U33A A46U C97A | -6.45
C15A G77A U96A | -3.85
C53U C94A A121C | 0.891
C40A C76U | -1.15
C34A C53G C56A | -2.83
C53A U78C C82U C102U | -0.997
C31U G120C | -2.93
G60C A111U G128U U133A | -6.08
C8A C62U | 0.19

Variant | polymerase ribozyme fitness (log ratio)
A6U C98U U112G | -3.5
C20U G113C | -2.2
C20U G113A | 1.4
A83C C85A C115A G117A | -6.05
C15G U59G | -2.27
C15G G71A | -2.92
C22G A37C U92C G120C | -4.95
U54G C114A | -1.69
G48U G69A U87A | -6.61
C49U G60A C97G | -5.67
C13A G63C | -2.37
C15U G42U G120U G127C | -2.69
C12A C40U C99U | -4.15
C12U G61C | -1.48
U38G C49A C73U C86U U109G U126A | -5.53
G10C C12A G51A G127C | -4.99
C4U G52A C114A | -2.66
G48C A91C U92G G120A C124U U130C | -1.63
A16U C73U A121C | 0.586
G71C C85A | -3.19
G63C C88A | -1.08

Variant | polymerase ribozyme fitness (log ratio)
G63C C79U G117U | -2.56
C53G G107A | -5.6
C72A U109C | -2.36
G10U C49U G57A U106C | -2.46
C72G U116A | -3.49
C72G A119U C124G | 1.57
C56U A100C | -1.29
G35A C72U C98A G117U | -7.49
U59A U87G | -0.319
C80U C101U A111U U116A | -4.81
C11A C73A U81C U125A | -3.38
U9A G63U | -0.179
C8A C13U C49G | 0.151
C40U A43U G69U | 0.0551
G19A G69U | -1.71
C12G C40G | -1.2
C11G U134A | 0.54
U9C C31G U92A G93C C114A | -5.25
A46C G48U C70A G113A | -3.12
C31A G61A C88U | -5.76
C72U U133A | -0.682

Variant | polymerase ribozyme fitness (log ratio)
C28U G69U | -0.614
A90U C114G A118G | -3.15
C11U A84G C89A | -4
U9G C124A U131G | 1.79
G19C C22A C53G U59G C123A | -5.66
G45U G52U | -2.65
C64U A74C | -0.717
C56U G61U C82A A91G C114U | -6.55
C8U C11U A29U C70A | -3.03
C56A G61C C62U C72G C89U | -0.49
G69U U112G C124A U133C | 2.87
C49U C56U U109G | -5.37
U21G C56U A111G U112G | -0.871
C4A G61U A105U | -4.13
C15A G48C C123G | -1.77
C15G G48A C85G | -3.62
U112G U125C | 0.47
G44A G71C U125A U129C | -4.8
A6C U78A C94G U106G | -3.64
C34G A46C U106A G110A U130G U131A | -5.46
